{"source": "paper PMC5138093", "about": "(Journal of molecular biology, 2016)", "proteins": {"B1": {"name": "GST fusion of the extracellular domain of IGPR-1 (GST-E-IGPR-1) (domain or fragment, human, UniProt Q96BF3 23-150, looked up)", "chain": "LSVQQGPNLLQVRQGSQATLVCQVDQATAWERLRVKWTKDGAILCQPYITNGSLSLGVCGPQGRLSWQAPSHLTLQLDPVSLNHSGAYVCWAAVEIPELEEAEGNITRLFVDPDDPTQNRNRIASFPG"}}, "target": "the molecule itself", "test": "non-reducing SDS-PAGE and western blot", "data": [{"protein": "B1", "values": [{"measurement": "binding result", "result": "binds"}]}]}
